Source: publication PMC9075797

Legend:
[1] = target: SARS-CoV-2 RBD tagged with a C-terminal Fc tag (SARS-CoV-2; strain not stated, ancestral (Wuhan-Hu-1) assumed) (UniProt P0DTC2); test: BLI
[2] = target: SARS-CoV-2 RBD tagged with a C-terminal Fc tag (SARS-CoV-2) (UniProt P0DTC2); test: BLI

Substance | Kd [1] | koff [1] | kon [1] | Kd [2] | koff [2] | kon [2]
(Nb1C)2, Tet-linked homodimer of VHH72 with Tet3.0 at the C terminus | 132 nM | 0.0064 s⁻¹ | 48100 M⁻¹ s⁻¹ | – | – | –
(Nb1N)2, Tet-linked homodimer of VHH72 with Tet3.0 at the N terminus | – | – | – | 13.8 nM | 0.00119 s⁻¹ | 85800 M⁻¹ s⁻¹
(Nb1N)3, Tet-linked homotrimer of VHH72 with Tet3.0 at the N terminus | – | – | – | 2.31 nM | 0.000566 s⁻¹ | 246000 M⁻¹ s⁻¹
(Nb1N)-(Nb2_(42)), Tet-linked heterodimer of VHH72 (Tet3.0 at the N terminus) and H11-H4 (Tet3.0 at Gly42) | – | – | – | 3.93 nM | 0.000593 s⁻¹ | 151000 M⁻¹ s⁻¹
(Nb1_(13))2, Tet-linked homodimer of VHH72 with Tet3.0 at Gln13 | – | – | – | 46 nM | 0.00156 s⁻¹ | 33800 M⁻¹ s⁻¹
(Nb1_(42))2, Tet-linked homodimer of VHH72 with Tet3.0 at Gly42 | – | – | – | 27.5 nM | 0.00201 s⁻¹ | 73100 M⁻¹ s⁻¹
Nb1-Nb1 tail-to-head genetically linked dimer of VHH72 | – | 0.00314 s⁻¹ | 35400 M⁻¹ s⁻¹ | – | – | –
Nb1-Nb1-Nb1 tail-to-head genetically linked trimer of VHH72 | 27.9 nM | 0.00156 s⁻¹ | 57900 M⁻¹ s⁻¹ | – | – | –
